Assay results: the nanobody polyreactivity screen of Harvey et al. (2022)

Assay: yeast display, Sf9 membrane polyspecificity reagent, FACS + sequencing; frameworks hold sequencing errors
Summary of the method: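 Galactose-induced (36–48 hours) yeast carrying a synthetic nanobody display library were exposed to 10% biotinylated, detergent-solubilized Sf9 membrane reagent at 4 °C for 1 hour. FACS followed streptavidin microbead enrichment, using low and high (top ~1%) gates for expression (anti-HA) and reagent binding (streptavidin). Colony PCR, MiSeq 2 × 250 sequencing and CDR-length filtering followed. Labels for polyreactivity reflect the gate of origin.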

Sequence	polyreactivity (PSR sort gate)
QVQLVESGGGLVQAGGSLRLSCAASGSTFRIYAKGWYRQAPGKERELVAAITRGARTNYADSVKGRFTISRDNAKNTVYLQMNSLKPEDTAVYYCAADGWRWYQHNGFDYWVQGTQVTVSS	high polyreactivity
QVQLVESGGGLVQAGGSLRLSCAASGLSSLRMLWDGIDRRLGKKGSWLPLITSGGDSTNYADSVKGRFTISRDIAKNTVYLQMNSLKPEDTAVYYCAADLDYPYGYWGQGTQVTVSS	low polyreactivity
QVQLVESGGGLVQAGASLRLSCAASGITFLDYAMGWYRQAPGTEREMVAVITWNDGSTYYADSVKGRFTISRDNAKNTVYLQMNSLKPEDTAVYYCAAEYADSWSAFDWNYYYWGQGTQVTVSS	high polyreactivity
QVQLVESGGGLVQAGGSLRLSCAASGSNFGPNAMGWYRQAPGKERELVAVISFRGGNTYYADSVKGRFTISRDNAKNTVYLQMNSLKPEDTAVYYCAARGYRYGYGYWGQGTQVTVSS	high polyreactivity
QVKLVESGGGLVQAGGSLRLSCAASGITFVSYAMGWYTQAPGKEREFVAAINRSGGSTYYADSVKGRFTISRDNAKNTVYLQMNSLKPEDTAVYYCAARRNLAYYHSGYWGQGTQVTVSS	high polyreactivity
QVQLVESGGGLVQAGGSLRLSCAASGVTFHGYTMGWYRQAPGKERELVAAITSGGGTNYADSVKGRFTISRDNAKNTVYLQMNSLKPEDTAVYYCAAGFHKRVTPEILYDYWGQGTQVTVSS	low polyreactivity
QVQLVESGGGLVQAGGSLRLSCAASGRIFAYYAMGWYRQAPGKERELVAAITSSGGSTYYADSVKGRFTISRDNAKNTVYLQMNSLKPEDTAVYFCAKVGARSERFDYRGQGTQVTVSS	high polyreactivity
QVQLVESGGGLVQAGGSLRLSCAASGRTFYWNAMGWYRQAPGKERELVAAITRNGGSTYYADSVKGRFTISRDNAKNNVYLQMNSLKPEDTAVYYCAARKRYGAGYDYWGQGTQVTVSS	high polyreactivity
QVHLVESGGGLVQAGGSLRLSCAASGLTFHRYAMGWYRQAPGKERELVAAINYSGGRTYYADSVKGRFTISRDNAKNSVYLQMNCLKPEDTEVYYCAAPRASGYYWGQGTQGTVSS	high polyreactivity
QVQLVESGGGLVQAGGSLRLSCAASGSTIDWYGMGWYRQAPGKERELVAAINFSDGSTYYADSVKGRFTISRDNAKNTVYLQMNSLKPEDTAVYYCAAFTPSYGGRDYWGQGTQVTVSS	low polyreactivity
QVQLVESGGGLVQVGGSLRLSCAASGRTFWWYAMGWYRQAPGKERELVAAISRGSTNYADSVKGRFTISRDNAKNTVYLQMNSLKPEDTAVYYCKAVSLYQSHDYDYWGQGTQVTVSS	low polyreactivity
QVQLVESGGGLVQAGGSLRLSCAASGSIFQYNAMGWYRQAPGKERELVAVISRSGSRTYYADSVKGRFTISRDNAKNTVYLQMNSLKPEDTAVYYCAAPFTSIGARDYYYWGQGTQVTVSS	high polyreactivity
QVQLVESGGGLVQAGGSLRLSCAASGRTFYYYAMGGYRQAPGKERELVAAISKSATRTYYADSVKGRFTISRDNAKNTVYLQMNSLKPEDTAVYYCATGQYLRTSRYYYWGQGTQVTVSS	high polyreactivity
QVQLVESGGGLVQAGGSLRLSCAASGGTFAIYAMGWYRQAPGKYRELVASINSGGSTNNADSVKGRFTISRDNAKNTVYFQLNLLKPEDTAVYYCNRGYLGYFRYDYWGQGTQVTVSS	high polyreactivity
QVQLVESGGGLVQAGGSLRLSCAASGSIFRWNSMGGYRQAPGKERELVASITSGGSTYYADSVKGRFTISRDNAKNTVYLQMNSLKPEDTAVYYCAAARYPGRKFDYWGQGTQVTVSS	high polyreactivity
QVQLVESGGGLVQAGGSLRLSCAASGSTIEPNAMGWYRPAPGKERELVAAINYSGGRTYYADSVKGRFTISRDNAKNTVYLQMNSLKPEDTAVYYCAATSIGRYKSRLDYWGQGTQVTVSS	high polyreactivity
